In article PMC8341984:

Target: CFP-cA1-cA1, two chicken ASIC1 subunits concatenated in a dimer with an N terminal CFP (chicken) (UniProt Q1XA76)
Assay: FRET or BRET; FLIM-FRET: lifetime of the CFP donor at the plasma membrane of single live HEK293T ASIC1 KO cells co-transfected at varying cDNA ratios; multi-photon excitation at 860 nm, single exponential fits

Q: With “C4 YFP, chicken ASIC1 with YFP at the C4 position of the C tail (from UniProt Q1XA76 1-527) (natural protein)” as the substance, how does the FRET efficiency (1:15 ratio) read?
A: Its FRET efficiency (1:15 ratio) is 15%.
